# Source: the RNAGym collection of RNA variant scans (doi:10.7554/elife.90254)
# B1: OR4K15 (parent)
# chain: GUUAACGGUCAUAGGCCAUGGAAACUAGGAGCACCAUUUCGCUGCCAGUGAAGAAAUGAACAAAGAAAAUCUGGGCCAGGCAGGCAUCAAAAGAAAUAGUCUUGCGCUCAACCAGAAAGUCUGUAAUCAUUUUAAGGGUA
# Variants of: B1
# Test: self-cleavage, relative activity (ratio to wild type); higher = more cleavage; in vitro, sequencing; the parent is a self-cleaving ribozyme
row,Variant,self-cleavage
1,GUUAACGGUCAUAGGCCAUGGAAACUAGGAGCACCAUUUCGCUGCCAGUGAAGAAAUGAACAAAGAAAAUCUGGGCCAGGCAGGCUUCAAAAGAAAUAGUCUUGCGCUCAACCAGAAAGUCUGUAAUCAUUUUAAGGGGA,1.57
2,GUUAACGGUCAUAGGCCAUGGAAACUAGGAGCACCAUUUCGCUGCCAGUGAAGAAAUGAACAAAGAAAAUCUGGGCCAGGCAGGCAAUAAAAGAAAUAGUCUUGCGCUCAACCAGAAAGUCUGUAAUCAUUUUAAGGGUA,1.17
3,GUUAACGGUCAUAGGCCAUGGAAACUAGGAGCACCAUUUCGCUGCCAGUGAAGAAAUGAACAAAGAAAAUCUGGGCCAGGCAGGCUUCAAAAGAAAUAGUCCUGCGCUCAACCAGAAAGUCUGUAAUCAUUUUAAGGGUA,2.39
4,GUUAACGGUCAUAGGCCAUGGAAACUAGGAGCACCAUUUCGCUGCCAGUGAAGAAAUGAACAAAGAAAAUCUGGGCCAGGCAGGCAACAAAAGAAAUAGUCUUGCGCUCAACCAGAAAGUCUGUAAUCACUUUAAGGGUA,1.36
5,GUUAACGGUCAUAGGCCAUGGAAACUAGGAGCACCAUUUCGCUGCCAGUGAAGAAAUGAACAAAGAAAAUCUGGGCCAGGCAGGCAACAAAAGAAAUAGUCUUGCGCCCAACCAGAAAGUCUGUAAUCAUUUUAAGGGUA,0.02
6,GUUAACGGUCAUAGGCCAUGGAAACUAGGAGCACCAUUUCGCUGCCAGUGAAGAAAUGAACAAAGAAAAUCUGGGCCAGGCAGGCAACAAAAGAAAUAGUCUUGCGCUCAACCAGAAAGUCUGUAAUCAUUCUAAGGGUA,1.35
7,GUUAACGGUCAUAGGCCAUGGAAACUAGGAGCACCAUUUCGCUGCCAGUGAAGAAAUGAACAAAGAAAAUCUGGGCCAGGCAGGCACCAAAAGAAAUAGUCUUGCGCUCAUCCAGAAAGUCUGUAAUCAUUUUAAGGGUA,0.07
8,GUUAACGGUCAUAGGCCAUGGAAACUAGGAGCACCAUUUCGCUGCCAGUGAAGAAAUGAACAAAGAAAAUCUGGGCCAGGCAGGCAACAAGAGAAAUAGUCUUGCGCUCAACCAGAAAGUCUGUAAUCAUUUUAAGGGUA,1.33
9,GUUAACGGUCAUAGGCCAUGGAAACUAGGAGCACCAUUUCGCUGCCAGUGAAGAAAUGAACAAAGAAAAUCUGGGCCAGGCAGGCAACAAAAGAAAUAGUCCUGCGCUCAACCAGAAAGUCUGUAAUCAUUUUAAGGGUA,1.71
10,GUUAACGGUCAUAGGCCAUGGAAACUAGGAGCACCAUUUCGCUGCCAGUGAAGAAAUGAACAAAGAAAAUCUGGGCCAGGCAGGCAACAAAAGAAAUAGUCUCGCGCUCAACCAGAAAGUCUGUAAUCAUUUUAAGGGUA,0.68
11,GUUAACGGUCAUAGGCCAUGGAAACUAGGAGCACCAUUUCGCUGCCAGUGAAGAAAUGAACAAAGAAAAUCUGGGCCAGGCAGGCUUCAAAAGAAAUAGUCUUGCGCUCAACCAGAAAGUCUAUAAUCAUUUUAAGGGUA,1.59
12,GUUAACGGUCAUAGGCCAUGGAAACUAGGAGCACCAUUUCGCUGCCAGUGAAGAAAUGAACAAAGAAAAUCUGGGCCAGGCAGGCAACAAAAGUAAUAGUCUUGCGCUCAACCAGAAAGUCUGUAAUCAUUUUAAGGGUA,1.52
13,GUUAACGGUCAUAGGCCAUGGAAACUAGGAGCACCAUUUCGCUGCCAGUGAAGAAAUGAACAAAGAAAAUCUGGGCCAGGCAGGCUUCAAAAGAAAUAGUCUUGCGCUCAACCAGAAAGUCUGUAAUCAUUCUAAGGGUA,1.71
14,GUUAACGGUCAUAGGCCAUGGAAACUAGGAGCACCAUUUCGCUGCCAGUGAAGAAAUGAACAAAGAAAAUCUGGGCCAGGCAGGCACCUAAAGAAAUAGUCUUGCGCUCAACCAGAAAGUCUGUAAUCAUUUUAAGGGUA,0.65
15,GUUAACGGUCAUAGGCCAUGGAAACUAGGAGCACCAUUUCGCUGCCAGUGAAGAAAUGAACAAAGAAAAUCUGGGCCAGGCAGGCAACAAAAGAAAUAGUCUUGCCCUCAACCAGAAAGUCUGUAAUCAUUUUAAGGGUA,0.01
16,GUUAACGGUCAUAGGCCAUGGAAACUAGGAGCACCAUUUCGCUGCCAGUGAAGAAAUGAACAAAGAAAAUCUGGGCCAGGCAGGCAACAAAAGAAGUAGUCUUGCGCUCAACCAGAAAGUCUGUAAUCAUUUUAAGGGUA,2.29
17,GUUAACGGUCAUAGGCCAUGGAAACUAGGAGCACCAUUUCGCUGCCAGUGAAGAAAUGAACAAAGAAAAUCUGGGCCAGGCAGGCAACAAAAGAAUUAGUCUUGCGCUCAACCAGAAAGUCUGUAAUCAUUUUAAGGGUA,1.68
18,GUUAACGGUCAUAGGCCAUGGAAACUAGGAGCACCAUUUCGCUGCCAGUGAAGAAAUGAACAAAGAAAAUCUGGGCCAGGCAGGCACCAAAGGAAAUAGUCUUGCGCUCAACCAGAAAGUCUGUAAUCAUUUUAAGGGUA,0.43
19,GUUAACGGUCAUAGGCCAUGGAAACUAGGAGCACCAUUUCGCUGCCAGUGAAGAAAUGAACAAAGAAAAUCUGGGCCAGGCAGGCACCAAAAGAAAUAGUCUUGCGCUCAACCAGCAAGUCUGUAAUCAUUUUAAGGGUA,0.06
20,GUUAACGGUCAUAGGCCAUGGAAACUAGGAGCACCAUUUCGCUGCCAGUGAAGAAAUGAACAAAGAAAAUCUGGGCCAGGCAGGCACCAAAAGAAAUAGUCUUGCGCUCAACCAGGAAGUCUGUAAUCAUUUUAAGGGUA,0.55
21,GUUAACGGUCAUAGGCCAUGGAAACUAGGAGCACCAUUUCGCUGCCAGUGAAGAAAUGAACAAAGAAAAUCUGGGCCAGGCAGGCUUCAAAAGAAAUAGUCUCGCGCUCAACCAGAAAGUCUGUAAUCAUUUUAAGGGUA,1.31
